# Patent publication US7109015B2, “Removal of N-terminal methionine from proteins by engineered methionine aminopeptidase” (Academia Sinica, priority 2004, dated 2006)
# Positions count from the first letter of the chain named. Names and notes keep the numbering of the source. Values joined by “and” are separate entries in the source; they are usually repeats but may differ in a detail not shown here. Equal values may be shown once. Read-outs that look alike come from different tables or passages of the source.
# T1: synthetic oligopeptides (Escherichia coli, UniProt P0AE18, M206T/Q233G/Y168G)
# T1 construct: […]; made in house; host or cells: E. coli BL21(DE3)
# T1 sequence (P0AE18 2-264 Y168G/M206T/Q233G): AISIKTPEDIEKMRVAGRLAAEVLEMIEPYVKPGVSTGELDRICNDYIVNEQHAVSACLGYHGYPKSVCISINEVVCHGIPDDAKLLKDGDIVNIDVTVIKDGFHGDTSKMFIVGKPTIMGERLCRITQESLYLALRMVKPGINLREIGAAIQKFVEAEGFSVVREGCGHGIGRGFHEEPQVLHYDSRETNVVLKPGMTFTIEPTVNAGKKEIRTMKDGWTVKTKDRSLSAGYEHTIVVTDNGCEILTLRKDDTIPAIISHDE
# B1: MetAP-GTG (protein)
# chain: T1 sequence (P0AE18 2-264 Y168G/M206T/Q233G)
# B2: F177L: E. coli MetAP mutation in the putative substrate-binding pocket (protein, UniProt P0AE18 2-264, looked up, variant F177L)
# Methionine aminopeptidase: T1 sequence (P0AE18 2-264 Y168G/M206T/Q233G) with G167Y, F176L, T205M, G232Q
# B3: W221L: E. coli MetAP mutation in the putative substrate-binding pocket (protein, UniProt P0AE18 2-264, looked up, variant W221L)
# Methionine aminopeptidase: T1 sequence (P0AE18 2-264 Y168G/M206T/Q233G) with G167Y, T205M, W220L, G232Q
# B4: C70S: E. coli MetAP mutation in the putative substrate-binding pocket (protein, UniProt P0AE18 2-264, looked up, variant C70S)
# Methionine aminopeptidase: T1 sequence (P0AE18 2-264 Y168G/M206T/Q233G) with C69S, G167Y, T205M, G232Q
# How the values were obtained:
# Met-tagged onconase = experiment: In vivo catalytic activity of MetAPs co-expressed with Met-tagged onconase in E. coli BL21(DE3); N-terminus by Edman degradation; type: cell-based; conditions: in vivo in E. coli
# Source text: Residues Tyr168, Met206 and Gln233 in the putative substrate-binding site of E. coli MetAP were mutated by site-directed mutagenesis based on the crystal structure and amino acid sequence alignment of MetAPs (Ben-Bassat et al., 1987; Lowther et al., 1999; Walker et al., 1999). For the expression of secretory ribonucleases, the ribonuclease gene was cloned and expressed as described previously (Huang et al., 1998).
# Most of the co-expressed target protein, e.g., onconase or RC-RNase L1, existed in insoluble cell lysate. They were denatured, renatured and purified as described previously (Liao et al., 2003). The purified ribonucleases were stored in 20 mM sodium phosphate, pH 7.0, for pyroglutamate formation at the N-terminus. Alternatively, the ribonuclease secreted into culture medium through pe1B system was concentrated and purified to electrophoretical homogeneity at a yield of 1˜5 mg per 1 liter of culture (Huang et al., 1998).
# synthetic oligopeptides [1] = target: T1, synthetic oligopeptides; type: biochemical; conditions: dodecapeptides, in vitro
# Method: (§1) The oligopeptide substrates used in this experiment were synthesized on the 432A Synergy peptide synthesizer (Applied Biosystems, Foster, Calif., USA). The enzymatic activity of purified MetAP was assayed as described by Ben-Bassat et al., 1987. Briefly, the diluted MetAP enzyme in 10 μl was added to 90 μl of the substrate solution containing 4 mM oligopeptide, 0.1 M potassium phosphate buffer, pH 7.5 and 0.2 mM CoCl2, incubated at 37° C. for 10 min and stopped in boiling water for 2 min. After addition of 0.9 ml of color development mixture containing 0.2 mg of L-amino acid oxidase, 0.03 mg of horseradish peroxidase and 0.2 mg of o-dianisidine in 0.1 M Tris-HCl, pH 7.4, the mixtures were incubated for 10 min at 37° C., and the optical density at 440 nm was recorded. One unit of activity is defined as 1 μmol of amino acids produced per min under the assay conditions and the pure Met was used as standard. The N-terminal residues of the MetAP-treated oligopeptide were further verified by Edman degradation.
# synthetic oligopeptides [2] = type: biochemical; conditions: for Specific activity (unit/mg): 4 mM oligopeptide, pH 7.5, 37° C.
# Method: as §1
# [3] = E. coli MetAP mutations; Chiu et al. 1999; cited from earlier work
molecule,measurement,setting,value
B1,Catalytic activity (%): percent of penultimate residue removed,Met-tagged onconase; substrate MAA-Onc,30%
same,Catalytic activity (%): removal of N-terminal Met,Met-tagged onconase; substrate MAA-Onc,100%
same,Catalytic activity (%): percent of penultimate residue removed,Met-tagged onconase; substrate MAG-Onc,16%
same,Catalytic activity (%): removal of N-terminal Met,Met-tagged onconase; substrate MAG-Onc,86%
same,Catalytic activity (%): removal of N-terminal Met,Met-tagged onconase; substrate MAL-Onc,100%
same,Catalytic activity (%): removal of N-terminal Met,Met-tagged onconase; substrate MAM-Onc,96%
same,Catalytic activity (%): removal of N-terminal Met,Met-tagged onconase; substrate MDD-Onc,27%
same,Catalytic activity (%): removal of N-terminal Met,Met-tagged onconase; substrate MED-Onc,35%
same,Catalytic activity (%): percent of penultimate residue removed,Met-tagged onconase; substrate MFA-Onc,100%
same,Catalytic activity (%): removal of N-terminal Met,Met-tagged onconase; substrate MFA-Onc,36%
same,Catalytic activity (%): removal of N-terminal Met,Met-tagged onconase; substrate MFD-Onc,23%
same,Catalytic activity (%): removal of N-terminal Met,Met-tagged onconase; substrate MIA-Onc,96%
same,Catalytic activity (%): removal of N-terminal Met,Met-tagged onconase; substrate MID-Onc,94%
same,Catalytic activity (%): removal of N-terminal Met,Met-tagged onconase; substrate MKA-Onc,9%
same,Catalytic activity (%): removal of N-terminal Met,Met-tagged onconase; substrate MKD-Onc,7%
same,Catalytic activity (%): percent of penultimate residue removed,Met-tagged onconase; substrate MLA-Onc,80%
same,Catalytic activity (%): removal of N-terminal Met,Met-tagged onconase; substrate MLA-Onc,100%
same,Catalytic activity (%): removal of N-terminal Met,Met-tagged onconase; substrate MLD-Onc,90% and 98%
same,Catalytic activity (%): percent of penultimate residue removed,Met-tagged onconase; substrate MLG-Onc,46%
same,Catalytic activity (%): removal of N-terminal Met,Met-tagged onconase; substrate MLG-Onc,87%
same,Catalytic activity (%): percent of penultimate residue removed,Met-tagged onconase; substrate MLH-Onc,51%
same,Catalytic activity (%): removal of N-terminal Met,Met-tagged onconase; substrate MLH-Onc,100%
same,Catalytic activity (%): percent of penultimate residue removed,Met-tagged onconase; substrate MLL-Onc,55%
same,Catalytic activity (%): removal of N-terminal Met,Met-tagged onconase; substrate MLL-Onc,93%
same,Catalytic activity (%): removal of N-terminal Met,Met-tagged onconase; substrate MLM-Onc,100%
same,Catalytic activity (%): percent of penultimate residue removed,Met-tagged onconase; substrate MLN-Onc,68%
same,Catalytic activity (%): removal of N-terminal Met,Met-tagged onconase; substrate MLN-Onc,100%
same,Catalytic activity (%): percent of penultimate residue removed,Met-tagged onconase; substrate MLP-Onc,95%
same,Catalytic activity (%): removal of N-terminal Met,Met-tagged onconase; substrate MLP-Onc,55%
same,Catalytic activity (%): percent of penultimate residue removed,Met-tagged onconase; substrate MLS-Onc,69%
same,Catalytic activity (%): removal of N-terminal Met,Met-tagged onconase; substrate MLS-Onc,87%
same,Catalytic activity (%): percent of penultimate residue removed,Met-tagged onconase; substrate MLT-Onc,54%
same,Catalytic activity (%): removal of N-terminal Met,Met-tagged onconase; substrate MLT-Onc,72%
same,Catalytic activity (%): percent of penultimate residue removed,Met-tagged onconase; substrate MLV-Onc,69%
same,Catalytic activity (%): removal of N-terminal Met,Met-tagged onconase; substrate MLV-Onc,97%
same,Catalytic activity (%): removal of N-terminal Met,Met-tagged onconase; substrate MQD-Onc,97%
same,Catalytic activity (%): percent of penultimate residue removed,Met-tagged onconase; substrate MQM-Onc,100%
same,Catalytic activity (%): removal of N-terminal Met,Met-tagged onconase; substrate MQM-Onc,100%
same,"Catalytic activity (%): value in parenthesis after Met and Gln removal (third cleavage site, second Met)",Met-tagged onconase; substrate MQM-Onc,73%
same,Catalytic activity (%): percent of penultimate residue removed,Met-tagged onconase; substrate MQN-Onc,90%
same,Catalytic activity (%): removal of N-terminal Met,Met-tagged onconase; substrate MQN-Onc,83%
same,Catalytic activity (%): percent of penultimate residue removed,Met-tagged onconase; substrate MQP-Onc,100%
same,Catalytic activity (%): removal of N-terminal Met,Met-tagged onconase; substrate MQP-Onc,54%
same,Catalytic activity (%): percent of penultimate residue removed,Met-tagged onconase; substrate MQT-Onc,79%
same,Catalytic activity (%): removal of N-terminal Met,Met-tagged onconase; substrate MQT-Onc,86%
same,Catalytic activity (%): removal of N-terminal Met,Met-tagged onconase; substrate MRA-Onc,8%
same,Catalytic activity (%): removal of N-terminal Met,Met-tagged onconase; substrate MRD-Onc,4%
same,Catalytic activity (%): percent of penultimate residue removed,Met-tagged onconase; substrate MWA-Onc,89%
same,Catalytic activity (%): removal of N-terminal Met,Met-tagged onconase; substrate MWA-Onc,100%
same,Catalytic activity (%): removal of N-terminal Met,Met-tagged onconase; substrate MWD-Onc,78%
same,Catalytic activity (%): removal of N-terminal Met,"Met-tagged onconase; substrate MWD-Onc, listed as GTG",much higher activities
same,Catalytic activity (%): removal of N-terminal Met,Met-tagged onconase; substrate MYA-Onc,22%
same,Catalytic activity (%): removal of N-terminal Met,Met-tagged onconase; substrate MYD-Onc,20%
same,Catalytic activity (%): removal of N-terminal Met,"Met-tagged onconase; substrate MYD-Onc, listed as GTG",much higher activities
same,Specific activity on […] as % of that for […],synthetic oligopeptides [1],43%
same,In vitro catalytic activity,synthetic oligopeptides [2]; oligopeptides with Gln at the penultimate residue,the most activity
same,Specific activity (unit/mg),synthetic oligopeptides [2]; substrate MADY (SEQ ID NO:7),1.68 ± 0.51 unit/mg
same,Specific activity (unit/mg),synthetic oligopeptides [2]; substrate MADYLT (SEQ ID NO:8),2.50 ± 0.42 unit/mg
same,Specific activity (unit/mg),synthetic oligopeptides [2]; substrate MQDYLT (SEQ ID NO:9),0.23 ± 0.01 unit/mg
same,Specific activity (unit/mg),synthetic oligopeptides [2]; substrate […] (SEQ ID NO:5),9.80 ± 0.26 unit/mg
same,Specific activity (unit/mg),synthetic oligopeptides [2]; substrate […] (SEQ ID NO:6),4.24 ± 0.14 unit/mg
B2,"Catalytic activity, % activity of the wild type",[3],do not reduce catalytic activity
B3,"Catalytic activity, % activity of the wild type",[3],27%
B4,"Catalytic activity, % activity of the wild type",[3],54%
